In PMC6468809, “Structural Analysis of the 42 kDa Parvulin of Trypanosoma brucei” (Biomolecules, 2019):
*1 amine or outer side, *2 acyl side, *3 side chain or, on linkers, in order; H or OH if unused. [ ]: non-standard residue; d: D form. pT = C[C@@H](OP(=O)(O)O)[C@H](N)C(=O)O; Suc = O=C(CCC(=O)[*:2])[*:1]

Molecular target: TbPar42 N-terminal extended FHA domain (1-177) (T. brucei)
Assay: NMR titration; 440 uM 15N-labelled NterFHA or PPIase in 50 mM potassium phosphate, pH 6.26, 90%/10% H2O/D2O; peptide added stepwise to 13 mM; 1H-15N-HSQC or SOFAST spectra, 700 MHz, 27 °C

B1: Suc-Ala-pThr-Pro-Ala-NH2 (peptide)
peptide: Suc-A[pT]PA-NH2
SMILES: C[C@H](NC(=O)[C@@H]1CCCN1C(=O)[C@@H](NC(=O)[C@H](C)NC(=O)CCC(=O)O)[C@@H](C)OP(=O)(O)O)C(N)=O
- Kd: 4 mM
